From article PMC11050402

How the values were obtained:
[1] = target: human epidermal growth factor receptor type 2 (HER2) (human (endogenous in SKOV-3 and BT-474)) (UniProt P04626); experiment: radioligand binding; LigandTracer Yellow on living SKOV-3 cells, 3 and 9 nM (1, 3 and 9 nM for [177Lu]Lu-G3), room temperature, with 100 nM human serum albumin; InteractionMap analysis, 1:2 model; apparent
[2] = target: human serum albumin (human) (UniProt P02768); experiment: SPR; Biacore T200, as described by Yin and co-authors (ref. 40); DOTA conjugates without radionuclide
[3] = target: murine serum albumin (murine) (UniProt P07724); experiment: as above
Sequence of UniProt P07724 (P07724 25-608): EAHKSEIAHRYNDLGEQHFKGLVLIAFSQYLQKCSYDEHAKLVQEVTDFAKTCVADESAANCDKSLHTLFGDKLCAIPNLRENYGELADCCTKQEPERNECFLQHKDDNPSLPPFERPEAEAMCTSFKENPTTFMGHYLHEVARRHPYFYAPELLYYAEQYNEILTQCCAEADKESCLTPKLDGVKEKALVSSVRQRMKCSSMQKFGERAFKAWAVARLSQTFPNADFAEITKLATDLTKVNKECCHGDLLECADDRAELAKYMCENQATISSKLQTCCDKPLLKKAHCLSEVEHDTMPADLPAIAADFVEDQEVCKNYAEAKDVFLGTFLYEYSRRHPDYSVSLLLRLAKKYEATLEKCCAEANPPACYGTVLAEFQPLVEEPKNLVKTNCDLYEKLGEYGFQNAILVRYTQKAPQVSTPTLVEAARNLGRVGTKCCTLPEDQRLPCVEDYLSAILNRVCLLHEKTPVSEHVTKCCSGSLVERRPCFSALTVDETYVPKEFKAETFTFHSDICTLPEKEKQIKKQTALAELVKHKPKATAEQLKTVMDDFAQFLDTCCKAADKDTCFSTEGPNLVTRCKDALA

Sequence of UniProt P02768 (P02768 25-609): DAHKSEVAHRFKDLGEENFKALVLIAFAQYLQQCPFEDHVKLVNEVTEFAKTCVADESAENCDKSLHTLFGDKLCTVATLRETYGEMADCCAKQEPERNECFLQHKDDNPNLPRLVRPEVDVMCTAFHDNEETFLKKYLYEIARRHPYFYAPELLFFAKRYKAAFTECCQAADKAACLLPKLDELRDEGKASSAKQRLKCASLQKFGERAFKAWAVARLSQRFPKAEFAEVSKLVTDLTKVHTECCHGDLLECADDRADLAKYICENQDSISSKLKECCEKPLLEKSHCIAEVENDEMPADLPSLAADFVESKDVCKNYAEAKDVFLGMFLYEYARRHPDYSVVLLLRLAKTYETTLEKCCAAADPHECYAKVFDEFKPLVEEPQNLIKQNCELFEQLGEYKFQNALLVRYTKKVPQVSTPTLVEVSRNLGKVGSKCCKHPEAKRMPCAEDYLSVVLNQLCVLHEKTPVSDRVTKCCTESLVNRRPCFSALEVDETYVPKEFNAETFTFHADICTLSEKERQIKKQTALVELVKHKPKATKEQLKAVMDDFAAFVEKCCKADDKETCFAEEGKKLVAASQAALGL

Q: Which KD2 (second interaction, 1:2 model) [1] does the source give for “non-ABD-fused DARPin G3 (control protein) (designed binder)” here?
A: 34 nM

Q: Which Kd [2] does the source give for ABD-G3-DOTA (designed binder) here?
A: 35.4 nM

Q: And the koff [2]?
A: 0.000302 s⁻¹

Q: What about the kon [2] of the same substance?
A: 8530 M⁻¹ s⁻¹

Q: And the Kd [3]?
A: 81.3 nM

Q: And the koff [3]?
A: 0.00191 s⁻¹

Q: What about the kon [3] of the same substance?
A: 23500 M⁻¹ s⁻¹

Q: What about the KD1 (first interaction, 1:2 model) [1] of the same substance?
A: 1290 pM

Q: What about the KD2 (second interaction, 1:2 model) [1] of the same substance?
A: 67 nM

Q: What does the source list for G3-ABD-DOTA (designed binder)?
A: Kd [2]: 1.82 nM; koff [2]: 0.000238 s⁻¹; kon [2]: 131000 M⁻¹ s⁻¹; Kd [3]: 8.46 nM; koff [3]: 0.00518 s⁻¹; kon [3]: 61300 M⁻¹ s⁻¹; KD1 (first interaction, 1:2 model) [1]: 901 pM; KD2 (second interaction, 1:2 model) [1]: 24 nM
